Assay results reported in the FLAb antibody collection (doi:10.7554/elife.23156).

B1: scFv; the commonest letter at each place (parent)
chain 1: EVKLDETGGGLVQPGRPMKLSCVASGFTFSDYWMNWVRQSPEKGLEWVAQIRNKPYNYETYYSDSVKGRFTISRDDSKSSVYLQMNNLRVEDMGIYYCTGSYYGMDYWGQGTSVTVS
chain 2: DVVMTQTPLSLPVSLGDQASISCRSSQSLVHSNGNTYLRWYLQKPGQSPKVLIYKVSNRFSGVPDRFSGSGSGTDFTLKISRVEAEDLGVYFCSQSTHVPWTFGGGTKLEIK

Key:
fluorescein = variants of: B1; assay: Kd (Tite-Seq); conditions: with fluorescein; format: scFv 4-4-20, heavy + light
[1] = variants of: B1; assay: yeast surface expression (ratio to wild type); higher = more expressed; conditions: format: scFv 4-4-20, heavy + light

Row | Variant | Kd (fluorescein) [µM] | yeast surface expression [1]
1 | chain 1 S101K D106M | ≥ 10 | 0.229
2 | chain 1 S101R Y107L | ≥ 10 | 0.862
3 | chain 1 S101R Y107I | ≥ 10 | 0.812
4 | chain 1 S101N W108P | ≥ 10 | 0.506
5 | chain 1 S101M W108G | ≥ 10 | 0.228
6 | chain 1 S101Y Y103G | ≥ 10 | 0.935
7 | chain 1 T28G F29R W36P | ≥ 10 | 0.146
8 | chain 1 T28G N35C | ≥ 10 | 0.586
9 | chain 1 T28E S30V | 0.0015 | 0.928
10 | chain 1 S101Q Y103L D106G | ≥ 10 | 0.41
11 | chain 1 T28A Y32T | ≥ 10 | 1.2
12 | chain 1 T28A Y32H | 0.0318 | 0.717
13 | chain 1 S101M Y107H | ≥ 10 | 0.483
14 | chain 1 T28C S30K | 0.00104 | 0.943
15 | chain 1 T28E V37C | 0.000369 | 0.863
16 | chain 1 T28E V37T | 0.00493 | 0.693
17 | chain 1 T28G D31C | ≥ 10 | 0.472
18 | chain 1 S101I Y103P M105E | ≥ 10 | 0.462
19 | chain 1 S101L D106K | ≥ 10 | 0.379
20 | chain 1 S101W Y107K | ≥ 10 | 0.427
21 | chain 1 S101R G109Q | ≥ 10 | 0.201

Row | Variant | Kd (fluorescein) [µM] | yeast surface expression [1]
22 | chain 1 S101R G109M | ≥ 10 | 0.251
23 | chain 1 S101W G104H | ≥ 10 | 0.376
24 | chain 1 S101W G104W | ≥ 10 | 0.254
25 | chain 1 S101T M105T | ≥ 10 | 0.928
26 | chain 1 S101Q M105V | ≥ 10 | 0.835
27 | chain 1 S101W Y103A | ≥ 10 | 0.685
28 | chain 1 T28C M34S | ≥ 10 | 0.611
29 | chain 1 S101V Y107H | ≥ 10 | 0.556
30 | chain 1 S101Q Y102D Y107P | ≥ 10 | 0.361
31 | chain 1 S101R W108V | ≥ 10 | 0.24
32 | chain 1 S101R W108L | ≥ 10 | 0.22
33 | chain 1 S101V Y103V | ≥ 10 | 0.316
34 | chain 1 T28A F29K | ≥ 10 | 0.821
35 | chain 1 T28A F29V | 0.00638 | 1.02
36 | chain 1 S101Q G104V | ≥ 10 | 0.296
37 | chain 1 S101Q G104R | ≥ 10 | 0.384
38 | chain 1 T28C M34L W36M | ≥ 10 | 0.657
39 | chain 1 T28F N35C | ≥ 10 | 0.644
40 | chain 1 S101Y Y102G | ≥ 10 | 0.796
41 | chain 1 T28E | 0.0017 | 1.04
42 | chain 1 T28C | 0.00179 | 0.965

Row | Variant | Kd (fluorescein) [µM] | yeast surface expression [1]
43 | chain 1 T28A D31M | 0.00239 | 0.955
44 | chain 1 T28A D31L | 0.00655 | 0.713
45 | chain 1 S101V G109P | ≥ 10 | 0.223
46 | chain 1 S101K Y107V | ≥ 10 | 0.507
47 | chain 1 S101N G109D | ≥ 10 | 0.316
48 | chain 1 S101N Y103L | ≥ 10 | 0.964
49 | chain 1 S101N Y103C | ≥ 10 | 0.438
50 | chain 1 S101T Y103Q G109I | ≥ 10 | 0.258
51 | chain 1 S101Y G104T | ≥ 10 | 0.261
52 | chain 1 S101Y G104C | ≥ 10 | 0.249
53 | chain 1 S101Y G104H | ≥ 10 | 0.343
54 | chain 1 S101Y M105T | ≥ 10 | 0.44
55 | chain 1 T28G V37P | 0.00519 | 0.581
56 | chain 1 T28D F29Y | 0.00871 | 0.975
57 | chain 1 T28E S30W Y32D | ≥ 10 | 0.574
58 | chain 1 S101P G104T M105Y | ≥ 10 | 0.208
59 | chain 1 S101Y Y103N D106L | ≥ 10 | 0.957
60 | chain 1 S101M G104W | ≥ 10 | 0.278
61 | chain 1 S101K Y103R | ≥ 10 | 0.714
62 | chain 1 S101K Y103S | ≥ 10 | 0.461

More lines, main results first:

Row | Kd (fluorescein) [µM] | Variant | yeast surface expression [1]
63 | ≥ 10 | chain 1 S101K D106V | 0.257
64 | ≥ 10 | chain 1 S101R Y107C | 0.286
65 | ≥ 10 | chain 1 S101N W108D | 0.399
66 | ≥ 10 | chain 1 T28C Y32P | 0.707
67 | ≥ 10 | chain 1 T28C Y32W | 0.802
68 | 3.55 | chain 1 T28A Y32K | 1.02
69 | ≥ 10 | chain 1 T28A Y32V | 1.32
70 | ≥ 10 | chain 1 S101Q D106N | 0.555
71 | ≥ 10 | chain 1 S101Y D106E | 0.627
72 | ≥ 10 | chain 1 S101Y D106K | 0.117
73 | 0.424 | chain 1 T28C S30I | 0.651
74 | ≥ 10 | chain 1 T28G F29R Y32K | 0.507
75 | ≥ 10 | chain 1 S101W M105I | 0.442
76 | ≥ 10 | chain 1 S101W M105Q | 0.517
77 | ≥ 10 | chain 1 T28A W33R M34S | 1.12
78 | 0.0154 | chain 1 T28D W36F | 0.895
79 | ≥ 10 | chain 1 T28D W36Q | 0.456
80 | ≥ 10 | chain 1 T28A N35Y W36V | 0.297
81 | ≥ 10 | chain 1 S101L D106G | 0.289
82 | ≥ 10 | chain 1 S101W Y107T | 0.42
83 | ≥ 10 | chain 1 S101W Y107W | 0.386
84 | ≥ 10 | chain 1 S101M D106G | 0.323
85 | ≥ 10 | chain 1 S101T W108C | 0.471
86 | ≥ 10 | chain 1 S101L Y103S M105A | 0.713
87 | ≥ 10 | chain 1 S101W G104Y | 0.203
88 | ≥ 10 | chain 1 S101T M105S | 0.699
89 | ≥ 10 | chain 1 S101Q M105S | 0.853

Row | Kd (fluorescein) [µM] | Variant | yeast surface expression [1]
90 | ≥ 10 | chain 1 S101Q M105Y | 0.795
91 | ≥ 10 | chain 1 S101R Y103K | 0.984
92 | ≥ 10 | chain 1 S101R W108H | 0.261
93 | ≥ 10 | chain 1 S101R W108Q | 0.346
94 | 0.0015 | chain 1 T28A F29Y | 1.06
95 | ≥ 10 | chain 1 S101Q G104P | 0.539
96 | ≥ 10 | chain 1 T28F F29W V37K | 0.532
97 | ≥ 10 | chain 1 S101Y Y102P | 0.326
98 | ≥ 10 | chain 1 T28F W36H | 0.598
99 | 0.00184 | chain 1 T28D | 1.15
100 | 0.00444 | chain 1 T28F | 0.842
101 | 0.00158 | chain 1 T28A | 1.01
102 | 0.0189 | chain 1 T28G | 0.994
103 | 0.00638 | chain 1 T28A D31W | 0.862
104 | ≥ 10 | chain 1 T28G F29P | 0.769
105 | ≥ 10 | chain 1 S101L M105D D106L | 0.276
106 | ≥ 10 | chain 1 S101N G109N | 0.267
107 | 0.0507 | chain 1 T28F D31A | 0.637
108 | ≥ 10 | chain 1 S101N Y103N | 1.21
109 | ≥ 10 | chain 1 T28G W36N | 0.456
110 | ≥ 10 | chain 1 S101K G104W M105V | 0.205
111 | ≥ 10 | chain 1 S101P Y103R | 0.277
112 | ≥ 10 | chain 1 S101V M105N | 0.675
113 | ≥ 10 | chain 1 S101V M105H | 0.496
114 | ≥ 10 | chain 1 S101N G104N | 0.806
115 | ≥ 10 | chain 1 S101M G104I | 0.274
116 | ≥ 10 | chain 1 S101K Y103T | 0.456
